B1: TERF1-interacting nuclear factor 2 (Homo sapiens), Q9BSI4 (parent)
chain: MATPLVAGPAALRFAAAASWQVVRGRCVEHFPRVLEFLRSLRAVAPGLVRYRHHERLCMGLKAKVVVELILQGRPWAQVLKALNHHFPESGPIVRDPKATKQDLRKILEAQETFYQQVKQLSEAPVDLASKLQELEQEYGEPFLAAMEKLLFEYLCQLEKALPTPQAQQLQDVLSWMQPGVSITSSLAWRQYGVDMGWLLPECSVTDSVNLAEPMEQNPPQQQRLALHNPLPKAKPGTHLPQGPSSRTHPEPLAGRHFNLAPLGRRRVQSQWASTRGGHKERPTVMLFPFRNLGSPTQVISKPESKEEHAIYTADLAMGTRAASTGKSKSPCQTLGGRALKENPVDLPATEQKENCLDCYMDPLRLSLLPPRARKPVCPPSLCSSVITIGDLVLDSDEEENGQGEGKESLENYQKTKFDTLIPTLCEYLPPSGHGAIPVSSCDCRDSSRPL
B2: Telomeric repeat-binding factor 2 (Homo sapiens), Q15554 (parent)
chain: MAAGAGTAGPASGPGVVRDPAASQPRKRPGREGGEGARRSDTMAGGGGSSDGSGRAAGRRASRSSGRARRGRHEPGLGGPAERGAGEARLEEAVNRWVLKFYFHEALRAFRGSRYGDFRQIRDIMQALLVRPLGKEHTVSRLLRVMQCLSRIEEGENLDCSFDMEAELTPLESAINVLEMIKTEFTLTEAVVESSRKLVKEAAVIICIKNKEFEKASKILKKHMSKDPTTQKLRNDLLNIIREKNLAHPVIQNFSYETFQQKMLRFLESHLDDAEPYLLTMAKKALKSESAASSTGKEDKQPAPGPVEKPPREPARQLRNPPTTIGMMTLKAAFKTLSGAQDSEAAFAKLDQKDLVLPTQALPASPALKNKRPRKDENESSAPADGEGGSELQPKNKRMTISRLVLEEDSQSTEPSAGLNSSQEAASAPPSKPTVLNQPLPGEKNPKVPKGKWNSSNGVEEKETWVEEDELFQVQAAPDEDSTTNITKKQKWTVEESEWVKAGVQKYGEGNWAAISKNYPFVNRTAVMIKDRWRTMKRLGMN
partner: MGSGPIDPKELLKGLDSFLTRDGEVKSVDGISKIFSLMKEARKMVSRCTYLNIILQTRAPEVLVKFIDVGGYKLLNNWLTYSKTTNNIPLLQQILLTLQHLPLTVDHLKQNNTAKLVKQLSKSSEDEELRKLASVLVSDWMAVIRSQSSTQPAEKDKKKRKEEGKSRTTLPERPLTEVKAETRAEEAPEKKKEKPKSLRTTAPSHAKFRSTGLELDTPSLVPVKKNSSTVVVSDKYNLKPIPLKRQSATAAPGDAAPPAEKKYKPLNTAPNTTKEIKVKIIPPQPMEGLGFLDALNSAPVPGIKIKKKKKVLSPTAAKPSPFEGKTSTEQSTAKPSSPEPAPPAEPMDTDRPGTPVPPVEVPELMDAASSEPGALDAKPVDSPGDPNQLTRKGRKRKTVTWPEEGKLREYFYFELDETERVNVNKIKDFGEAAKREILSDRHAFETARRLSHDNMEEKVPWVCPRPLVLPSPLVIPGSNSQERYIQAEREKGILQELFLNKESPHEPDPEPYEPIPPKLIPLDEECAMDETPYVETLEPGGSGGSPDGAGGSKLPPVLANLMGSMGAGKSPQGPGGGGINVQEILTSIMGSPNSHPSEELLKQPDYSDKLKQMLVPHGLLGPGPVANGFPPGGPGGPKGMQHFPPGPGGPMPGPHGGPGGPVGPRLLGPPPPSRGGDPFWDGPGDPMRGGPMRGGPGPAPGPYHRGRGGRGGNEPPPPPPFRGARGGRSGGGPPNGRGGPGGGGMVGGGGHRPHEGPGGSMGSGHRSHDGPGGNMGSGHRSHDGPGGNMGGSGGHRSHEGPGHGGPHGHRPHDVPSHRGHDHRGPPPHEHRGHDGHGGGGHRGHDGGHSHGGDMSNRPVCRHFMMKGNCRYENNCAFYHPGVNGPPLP
B3: Microcephalin (Homo sapiens), Q8NEM0 (parent)
chain: MAAPILKDVVAYVEVWSSNGTENYSKTFTTQLVDMGAKVSKTFNKQVTHVIFKDGYQSTWDKAQKRGVKLVSVLWVEKCRTAGAHIDESLFPAANMNEHLSSLIKKKRKCMQPKDFNFKTPENDKRFQKKFEKMAKELQRQKTNLDDDVPILLFESNGSLIYTPTIEINSRHHSAMEKRLQEMKEKRENLSPTSSQMIQQSHDNPSNSLCEAPLNISRDTLCSDEYFAGGLHSSFDDLCGNSGCGNQERKLEGSINDIKSDVCISSLVLKANNIHSSPSFTHLDKSSPQKFLSNLSKEEINLQRNIAGKVVTPDQKQAAGMSQETFEEKYRLSPTLSSTKGHLLIHSRPRSSSVKRKRVSHGSHSPPKEKCKRKRSTRRSIMPRLQLCRSEDRLQHVAGPALEALSCGESSYDDYFSPDNLKERYSENLPPESQLPSSPAQLSCRSLSKKERTSIFEMSDFSCVGKKTRTVDITNFTAKTISSPRKTGNGEGRATSSCVTSAPEEALRCCRQAGKEDACPEGNGFSYTIEDPALPKGHDDDLTPLEGSLEEMKEAVGLKSTQNKGTTSKISNSSEGEAQSEHEPCFIVDCNMETSTEEKENLPGGYSGSVKNRPTRHDVLDDSCDGFKDLIKPHEELKKSGRGKKPTRTLVMTSMPSEKQNVVIQVVDKLKGFSIAPDVCETTTHVLSGKPLRTLNVLLGIARGCWVLSYDWVLWSLELGHWISEEPFELSHHFPAAPLCRSECHLSAGPYRGTLFADQPAMFVSPASSPPVAKLCELVHLCGGRVSQVPRQASIVIGPYSGKKKATVKYLSEKWVLDSITQHKVCAPENYLLSQ
B4: Serine/threonine-protein phosphatase 1 regulatory subunit 10 (Mus musculus), Q80W00 (parent)
chain: B2 partner

Variants of: B1
Conditions: with terf2_human TERF2, Q15554
With F258A;L260A the “effect of a mutation on the interaction” value was “decreasing interaction”.

Variants of: B2
Conditions: with pp1ra_mouse Ppp1r10, Q80W00
F162A was tested, and the “effect of a mutation on the interaction” value was “disrupting interaction strength”.

Variants of: B3
Conditions: with terf2_human TERF2, Q15554
For Y330A;L332A, the “effect of a mutation on the interaction” value was “disrupting interaction”.

Variants of: B4
Conditions: with terf2_human TERF2, Q15554
In the case of Y236A;L238A, the “effect of a mutation on the interaction” value is reported as “disrupting interaction”.

— IntAct's records for PubMed 19287395
